In paper doi:10.1101/2020.11.13.381533 (bioRxiv, 2020):

What follows are binders tested against SARS-CoV-2 S receptor-binding domain (RBD), construct for crystallography (SARS-CoV-2, GenBank QHD43416.1 …, UniProt P0DTC2) (assay: crystal structure).

| Binder | binding result |
| --- | --- |
| C1A-B3 Fab (Fab, V domains shown) VH: EVQLVESGGGLIQPGGSLRLSCAASGFTVSSNYMSWVRQAPGKGLEWVSVIYSGGTTYYADSVKGRFTISRDNSKNTVFLQMNSLRAEDTAVYYCARGDVSGYRYGLDYWGQGTLVTVS VL: DIQLTQSPSSLSASVGDRVTITCRASQGISSYLAWYQQKPGKAPKLLIYAASTLQSGVPSRFSGSGSGTDFTLTISSLQPEDFATYYCQQLNSYPGTFGQGTKLEIK | binds |
| C1A-F10 Fab (Fab, V domains shown) VH: EVQLVESGGGLIQPGGSLRLSCAASGFTVSSNYMSWVRQAPGKGLEWVSVIYSGGTTYYADSVKGRFTISRDNSKNTLYLQMNSLRAEDTAVYYCARGDVSGYRYGLDYWGQGTLVTVS VL: DIQLTQSPSSLSASVGDRVTITCRASQGISSYLAWYQQKPGKAPKLLIYAASTLENGVPSRFSGSGSGTDFTLTISSLQPEDFATYYCQQLNSYPGTFGQGTKLEIK | binds |
| C1A-C2 Fab (Fab, V domains shown) VH: EVQLVESGGGLIQPGGSLRLSCAVSGFTVSNNYMSWVRQAPGKGLEWVSVIYSGGTTYYADSVKGRFTISRDNSKNTLYLQMNSLRAEDTAVYYCARGDVSGYRYGLDYWGQGTLVTVS VL: DIQLTQSPSSLSAFVGDRVTITCRASEGISSYLAWYQQKPGNAPKLLIYAASTLESGVPSRFSGSGSGTDFTLTISSLQPEDFATYYCQQLNSYPGTFGQGTKLEIK | binds |
